Each block holds one binder with its values, some of them ahead of it. Ends that are not written are not given here.
How the values were obtained:
[1] = target: T1, purified recombinant NF-κB p65 (UniProt Q04206 1-551, limits assumed); assay: GST pull-down of purified recombinant p65, immunoblot anti-p65
T1 construct: also called purified NF-κB p65

[2] = target: purified recombinant STAT3 (UniProt P40763 1-770, limits assumed); assay: GST pull-down of purified recombinant STAT3, immunoblot anti-STAT3
Chain of purified recombinant STAT3 (P40763 whole entry, the tested form may be a part): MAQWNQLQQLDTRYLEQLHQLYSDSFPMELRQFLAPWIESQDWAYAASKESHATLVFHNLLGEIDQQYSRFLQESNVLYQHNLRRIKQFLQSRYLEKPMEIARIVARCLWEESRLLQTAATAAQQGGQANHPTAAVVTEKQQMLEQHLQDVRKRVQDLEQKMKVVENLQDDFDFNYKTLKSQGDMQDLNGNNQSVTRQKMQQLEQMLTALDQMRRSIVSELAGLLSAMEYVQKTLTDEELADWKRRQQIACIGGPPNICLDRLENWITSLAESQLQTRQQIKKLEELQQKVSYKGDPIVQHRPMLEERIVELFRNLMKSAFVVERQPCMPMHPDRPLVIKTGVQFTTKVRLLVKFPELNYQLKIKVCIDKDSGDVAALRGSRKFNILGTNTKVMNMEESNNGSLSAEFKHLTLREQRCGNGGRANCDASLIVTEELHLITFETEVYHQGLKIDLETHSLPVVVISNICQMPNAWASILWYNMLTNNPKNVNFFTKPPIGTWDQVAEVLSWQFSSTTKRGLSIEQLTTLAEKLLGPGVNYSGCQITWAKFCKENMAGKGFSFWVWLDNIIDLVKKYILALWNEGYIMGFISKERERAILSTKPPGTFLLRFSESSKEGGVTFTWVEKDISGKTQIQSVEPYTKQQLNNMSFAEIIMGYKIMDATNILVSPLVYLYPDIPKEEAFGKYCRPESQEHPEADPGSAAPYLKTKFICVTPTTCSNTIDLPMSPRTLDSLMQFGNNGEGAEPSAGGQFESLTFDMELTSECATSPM
Experimental: (§1) FIGS. 9A-D: MUC1-C binds directly to the STAT3 DBD. (FIG. 9A) Lysates from ZR-75-1 (left) and MCF-7 (right) cells were subjected to immunoprecipitation with anti-STAT3 or a control IgG. The precipitates were immunoblotted with the indicated antibodies. (FIG. 9B) Lysates from ZR-75-1 cells were incubated with GST and GST-MUC1-CD bound to glutathione beads. The adsorbates were immunoblotted with anti-STAT3 Input of the GST and GST-MUC1-CD proteins was assessed by Coomassie blue staining. (FIG. 9C) Amino acid sequence of the MUC1 cytoplasmic domain is shown with the indicated phosphorylation and binding sites. GST, GST-MUC1-CD, GST-MUC1-CD (1-45) and GST-MUC1-CD (46-72) bound to glutathione beads were incubated with purified recombinant STAT3. The adsorbates were immunoblotted with anti-STAT3. Input of the GST and GST-MUC1-CD fusion proteins was assessed by Coomassie blue staining. (FIG. 9D) Structure of STAT3. GST, GST-STAT3 (full length; amino acids 1-770), […], […] and […] bound to glutathione beads were incubated with purified MUC1-CD. Adsorbates were immunoblotted with anti-MUC1-C. Input of the GST and GST-STAT3 fusion proteins was assessed by Coomassie blue staining.
(§2) MUC1-C directly interacts with STAT3. […]

[3] = target: T2, GST-STAT3 (N-terminal; amino acids 1-257) (UniProt P40763 1-257); assay: GST-STAT3 deletion mutants on glutathione beads incubated with purified MUC1-CD, immunoblot anti-MUC1-C
T2 construct: range 1-257; The legend names it GST-MUC1-CD, but the text and the end of the legend speak of STAT3 deletion mutants / GST-STAT3 fusion proteins; also called dimerization domain; printed in the legend as GST-MUC1-CD (N-terminal: amino acids 1-257); not shown: glutathione S-transferase (GST) fusion moiety
T2 sequence (P40763 1-257): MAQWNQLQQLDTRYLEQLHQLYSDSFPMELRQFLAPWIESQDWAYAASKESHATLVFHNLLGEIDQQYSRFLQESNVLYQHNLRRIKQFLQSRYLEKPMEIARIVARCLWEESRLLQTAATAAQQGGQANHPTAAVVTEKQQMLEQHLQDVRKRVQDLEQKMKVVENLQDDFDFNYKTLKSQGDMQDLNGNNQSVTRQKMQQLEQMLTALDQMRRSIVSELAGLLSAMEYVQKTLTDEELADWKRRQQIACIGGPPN
Experimental: as §1, §2

[4] = target: T3, GST-STAT3 (C-terminal; amino acids 514-770) (UniProt P40763 514-770); assay: as above
T3 construct: range 514-770; The legend names it GST-MUC1-CD, but the text and the end of the legend speak of STAT3 deletion mutants / GST-STAT3 fusion proteins; also called printed in the legend as GST-MUC1-CD (C-terminal); not shown: glutathione S-transferase (GST) fusion moiety
T3 sequence (P40763 514-770): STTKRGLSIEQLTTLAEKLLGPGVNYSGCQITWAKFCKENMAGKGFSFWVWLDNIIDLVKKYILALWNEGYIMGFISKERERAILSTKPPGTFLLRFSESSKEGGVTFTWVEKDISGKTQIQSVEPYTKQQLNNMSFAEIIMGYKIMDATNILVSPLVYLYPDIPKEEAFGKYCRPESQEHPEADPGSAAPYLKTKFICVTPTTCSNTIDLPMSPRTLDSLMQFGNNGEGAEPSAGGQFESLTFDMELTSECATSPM
Experimental: as §1, §2

[5] = target: T4, STAT3 (in cells / cell lysates) (human, UniProt P40763 2-770); assay: co-immunoprecipitation with anti-STAT3 from ZR-75-1 and MCF-7 cell lysates, immunoblot anti-MUC1-C
T4 construct: Endogenous protein of the cell lines
T4 sequence (P40763 2-770 limits assumed): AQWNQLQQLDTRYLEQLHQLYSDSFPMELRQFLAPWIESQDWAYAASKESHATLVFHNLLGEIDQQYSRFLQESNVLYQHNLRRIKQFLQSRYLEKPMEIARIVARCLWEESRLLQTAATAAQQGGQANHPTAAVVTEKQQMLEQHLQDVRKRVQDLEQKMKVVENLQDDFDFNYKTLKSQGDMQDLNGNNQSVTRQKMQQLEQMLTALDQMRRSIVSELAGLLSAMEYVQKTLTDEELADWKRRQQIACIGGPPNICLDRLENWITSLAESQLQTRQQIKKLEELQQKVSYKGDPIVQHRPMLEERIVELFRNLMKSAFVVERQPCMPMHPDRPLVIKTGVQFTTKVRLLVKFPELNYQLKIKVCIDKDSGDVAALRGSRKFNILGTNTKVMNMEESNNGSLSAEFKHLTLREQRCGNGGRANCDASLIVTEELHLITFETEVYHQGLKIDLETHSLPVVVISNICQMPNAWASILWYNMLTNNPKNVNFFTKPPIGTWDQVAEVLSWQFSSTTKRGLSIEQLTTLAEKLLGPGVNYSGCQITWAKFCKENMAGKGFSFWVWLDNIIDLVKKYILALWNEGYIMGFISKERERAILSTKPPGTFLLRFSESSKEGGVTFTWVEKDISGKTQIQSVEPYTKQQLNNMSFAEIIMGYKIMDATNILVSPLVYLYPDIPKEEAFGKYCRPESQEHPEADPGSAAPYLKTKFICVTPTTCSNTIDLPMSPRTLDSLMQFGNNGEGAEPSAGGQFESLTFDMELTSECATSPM
Experimental: as §1, §2

[6] = target: T5, NF-κB p65 (in cells / cell lysates) (human, UniProt Q04206 1-551); assay: co-immunoprecipitation with anti-p65 from ZR-75-1, MCF-7 and U-937/MUC1-C cell lysates, immunoblot anti-MUC1-C
T5 construct: Endogenous protein of the cell lines
Experimental: Immunoprecipitation and immunoblotting. Lysates from sub-confluent cells were prepared as described (Ren et al., 2004). Soluble proteins were precipitated with anti-NF-κB p65 (Santa Cruz Biotechnology, Santa Cruz, Calif.). […] Immune complexes were detected with horseradish peroxidase-conjugated secondary antibodies (GE Healthcare Biosciences, Piscataway, N.J.) and enhanced chemiluminescence (GE Healthcare).
MUC1-C associates with NF-κB p65. To determine whether MUC1 interacts with NF-κB, anti-NF-κB p65 precipitates from ZR-75-1 breast cancer cells were immunoblotted with an antibody against the MUC1-C subunit cytoplasmic domain. […] Similar findings were obtained with lysates from MCF-7 breast cancer cells, which also overexpress endogenous MUC1 (FIG. 1B). To determine whether the MUC1-N subunit is necessary for the association, studies were performed on U-937 cells that stably express exogenous MUC1-C and not MUC1-N (Agata et al., 2008).

[7] = target: T6, GST-IκBα (UniProt P25963 1-317); assay: GST pull-down of purified p65(1-180), immunoblot anti-p65
T6 construct: Bought (Millipore, Billerica, Mass.); not shown: glutathione S-transferase (GST) fusion moiety
T6 sequence (looked up): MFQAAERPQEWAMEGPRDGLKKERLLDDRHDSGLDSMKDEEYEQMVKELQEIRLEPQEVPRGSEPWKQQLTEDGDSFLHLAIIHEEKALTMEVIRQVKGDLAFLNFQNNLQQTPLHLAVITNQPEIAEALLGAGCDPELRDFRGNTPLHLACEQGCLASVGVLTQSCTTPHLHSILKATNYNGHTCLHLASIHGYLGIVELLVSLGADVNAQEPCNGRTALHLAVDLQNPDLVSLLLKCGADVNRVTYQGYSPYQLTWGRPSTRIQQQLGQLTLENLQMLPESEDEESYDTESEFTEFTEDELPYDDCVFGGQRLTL

binding result [3]: no binding
binding result [4]: no binding
B2: MUC1-CD (purified, GST moiety removed with thrombin) (other)
chain: CQCRRKNYGQLDIFPARDTYHPMSEYPTYHTHGRYVPPSSTDRSPYEKVSAGNGGSSLSYTNPAVAATSANL
notes: also called purified MUC1-CD; MUC1-C cytoplasmic domain

binding result [5]: binds
binding result [6]: binds
B3: MUC1 C-terminal subunit (MUC1-C), in cells (receptor)
chain: SVVVQLTLAFREGTINVHDVETQFNQYKTEAASRYNLTISDVSVSDVPFPFSAQSGAGVPGWGIALLVLVCVLVALAIVYLIALAVCQCRRKNYGQLDIFPARDTYHPMSEYPTYHTHGRYVPPSSTDRSPYEKVSAGNGGSSLSYTNPAVAATSANL
notes: Endogenous MUC1-C in lysates of ZR-75-1, MCF-7 and MCF-10A cells, or exogenous MUC1-C in U-937 cells and exogenous MUC1 in HeLa cells

The remaining lines, values behind:

B1: GST-MUC1-CD(1-45) (other)
chain: CQCRRKNYGQLDIFPARDTYHPMSEYPTYHTHGRYVPPSSTDRSP
modifications: cysteine pairing not given here; also: GST fusion
notes: Deletion mutant of GST-MUC1-CD; residues counted on the 72 amino acid cytoplasmic domain; not shown: glutathione S-transferase (GST) fusion moiety
binding result [1]: no binding
binding result [2]: no binding

B4: p65(1-180) (other, UniProt Q04206 1-180, looked up)
chain: MDELFPLIFPAEPAQASGPYVEIIEQPKQRGMRFRYKCEGRSAGSIPGERSTDTTKTHPTIKINGYTGPGTVRISLVTKDPPHRPHPHELVGKDCRDGFYEAELCPDRCIHSFQNLGIQCVKKRDLEQAISQRIQTNNNPFQVPIEEQRGDYDLNAVRLCFQVTVRDPSGRPLRLPPVLS
notes: range 1-180; Purified deletion mutant; also called purified p65(1-180)
binding result [7]: no binding
